According to article PMC7736295 (Cell Discovery, 2020):
Changes are numbered by the printed parent chain. Names and notes keep the numbering of the source.

B1: CASK-CaMK (residues 1-337) (domain or fragment)
chain: MADDDVLFEDVYELCEVIGKGPFSVVRRCINRETGQQFAVKIVDVAKFTSSPGLSTEDLKREASICHMLKHPHIVELLETYSSDGMLYMVFEFMDGADLCFEIVKRADAGFVYSEAVASHYMRQILEALRYCHDNNIIHRDVKPHCVLLASKENSAPVKLGGFGVAIQLGESGLVAGGRVGTPHFMAPEVVKREPYGKPVDVWGCGVILFILLSGCLPFYGTKERLFEGIIKGKYKMNPRQWSHISESAKDLVRRMLMLDPAERITVYEALNHPWLKERDRYAYKIHLPETVEQLRKFNARRKLKGAVLAAVSSHKFNSFYGDPPEELPDFSEDPTS
B2: Mint1-CID (residues 338-397) (domain or fragment, UniProt O35430 338-397, looked up)
chain: QRYSKEKRDAISLAIKDIKEAIEEVKTRTIRSPYTPDEPKEPIWVMRQDISPTRDCDDQR
notes: also called the entire CID; the whole CID; source: E. coli BL21 (DE3), purified (Ni2+-Sepharose, size-exclusion chromatography); not shown: Trx, N-terminal, cleaved; His6, N-terminal, cleaved
B3: Mint1-CID (residues 338-397) I352A I355A I359A (domain or fragment, UniProt O35430 338-397, looked up)
chain: B2 chain with I15A, I18A, I22A
notes: Mint1-CID residues 338-397 with I352A, I355A and I359A; Probably made as the wild-type fragment (E. coli, Trx-His6 tag removed); also called the mutations in the N-CID; source: recombinant protein
B4: Mint1-CID (residues 338-397) W381A (domain or fragment, UniProt O35430 338-397, looked up)
chain: B2 chain with W44A
notes: Mint1-CID residues 338-397 with W381A; Probably made as the wild-type fragment (E. coli, Trx-His6 tag removed); also called the C-CID W381A mutation; source: recombinant protein
B5: Mint1-C-CID (residues 371-397) (domain or fragment, UniProt O35430 371-397, looked up)
chain: YTPDEPKEPIWVMRQDISPTRDCDDQR
notes: C-terminal half of the CID of Mint1, residues 371-397; source: E. coli BL21 (DE3), purified (Ni2+-Sepharose, size-exclusion chromatography); not shown: Trx, N-terminal, cleaved; His6, N-terminal, cleaved

Experiments:
[1] = target: T1, Mint1-CID (residues 338-397) I352A I355A I359A (UniProt O35430 338-397, I352A | I355A | I359A); experiment: ITC
T1 sequence: B2 chain with I15A, I18A, I22A

[2] = target: T2, CASK-CaMK (residues 1-337) (UniProt Q62915 1-337); experiment: ITC; MicroCalorimeter ITC200, 25 °C; Mint1 fragments and mutants injected into CASK-CaMK in the cell; repeated three times; conditions: both partners purified
T2 construct: CaMK domain of CASK, residues 1-337; also called CASK(residues 1-337); source: E. coli BL21 (DE3), purified (Ni2+-Sepharose, size-exclusion chromatography); not shown: Trx, N-terminal, cleaved; His6, N-terminal, cleaved
T2 sequence (looked up): B1 chain

[3] = target: B1; experiment: ITC
[4] = target: T3, CASK-CaMK (residues 1-301) (UniProt Q62915 1-301); experiment: ITC
T3 chain: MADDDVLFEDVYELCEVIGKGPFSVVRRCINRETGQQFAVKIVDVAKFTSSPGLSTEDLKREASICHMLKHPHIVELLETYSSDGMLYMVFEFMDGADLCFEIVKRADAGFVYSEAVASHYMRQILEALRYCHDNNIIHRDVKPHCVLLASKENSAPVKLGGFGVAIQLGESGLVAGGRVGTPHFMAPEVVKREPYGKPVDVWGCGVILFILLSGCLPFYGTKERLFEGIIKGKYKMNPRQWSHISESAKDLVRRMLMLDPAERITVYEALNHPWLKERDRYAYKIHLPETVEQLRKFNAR

[5] = target: T4, CASK-CaMK (residues 1-319) (UniProt Q62915 1-319); experiment: ITC
T4 chain: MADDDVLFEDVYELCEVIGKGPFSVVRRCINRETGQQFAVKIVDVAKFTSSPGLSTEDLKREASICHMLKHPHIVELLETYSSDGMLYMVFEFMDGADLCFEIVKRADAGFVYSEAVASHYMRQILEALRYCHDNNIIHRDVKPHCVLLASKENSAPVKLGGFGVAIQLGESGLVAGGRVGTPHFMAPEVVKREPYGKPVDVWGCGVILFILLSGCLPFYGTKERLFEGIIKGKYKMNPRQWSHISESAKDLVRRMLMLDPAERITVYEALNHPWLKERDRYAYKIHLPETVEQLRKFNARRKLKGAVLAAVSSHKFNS

B1
Kd [1]: 270 nM

B2
Kd [2]: ~20 nM
Kd [3]: 17 nM
Kd [4]: 42 nM
Kd [5]: 30 nM

B3
fold reduction of the binding affinity against the wild-type CID [2]: ~15 fold

B4
Kd [2]: ~55000 nM

B5
Kd [2]: ~500 nM
